The text below walks through data of the supplement of paper PMC7877785.

The data set can be described thus: self-splicing fitness, log relative to wild type (ln ratio); higher = more splicing; Tetrahymena group I intron in knt gene, E. coli kanamycin selection, DiMSum; sequences stand for … in CUCUCU…GGAGGGAAAAGUUAUCAGGCAUGCACCUGGUAGCUAGUCUUUAAACCAAUAGAUUGCAUCGGUUUAAAAGGCAAGACCGUCAAAUUGCGGGAAAGGGGUCAACAGCCGUUCAGUACCAAGUCUCAGGGGAAACUUUGAGAUGGCCUUGCAAAGGGUAUGGUAAUAAGCUGACGGACAUGGUCCUAACCACGCAGCCAAGUCCUAAGUCAACAGAUCUUCUGUUGAUAUGGAUGCAGUUCACAGACUAAAUGUCGGUCGGGGAAGAUGUAUUCUUCUCAUAAGAUAUAGUCGGACCUCUCCUUAAUGGGAGCUAGCGGAUGAAGUGAUGCAACACUGGAGCCGCUGGGAACUAAUUUGUAUGCGAAAGUAUAUUGAUUAGUUUUGGAGUACUCGUGGUCG
In a few lines: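 DiMSum derived fitness as the error-weighted combination of fold changes across replicates, kanamycin versus no kanamycin, normalised to wild type. E. coli BL21(DE3) held the library, which randomised all eight P1ex-region intron nucleotides within the knt kanamycin-resistance gene on pET-22b(+). Six replicate transformations grew overnight at 37°C or 30°C on LB agar with or without 25 μg/mL kanamycin, also containing 100 μg/mL carbenicillin, 50 μM IPTG and 0.2% rhamnose, and pooled colonies were amplicon-sequenced on an Illumina HiSeq 2500.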

± gives the uncertainty stated by the source.

AUUAAGCAAUAUUACGUCGG: the “self-splicing fitness (ln)” value is -2.34 ± 0.18 (30 °C) and -1.2 ± 0.22 (37 °C).

On to AUUAAGCAAUAUUACGUUAU, for which the “self-splicing fitness (ln)” value (30 °C) is -1.22 ± 0.097 and the “self-splicing fitness (ln)” value (37 °C) is -1.1 ± 0.15.

For the sequence AUUAAGCAAUAUUACGUUUC, the “self-splicing fitness (ln)” value (30 °C) is -3.77 ± 0.35 and the “self-splicing fitness (ln)” value (37 °C) was -1.65 ± 0.26.

In the case of AUUAAGCAAUAUUACGUUUU, the “self-splicing fitness (ln)” value runs as follows: (30 °C) -2.27 ± 0.11; (37 °C) -1.81 ± 0.12.

In the case of AUUCAGCAAUAUUACGAAGA, the “self-splicing fitness (ln)” value reads like this: (30 °C) -0.761 ± 0.13; (37 °C) -0.747 ± 0.12.

As to AUUCAGCAAUAUUACGAAGU, the “self-splicing fitness (ln)” value is -1.52 ± 0.11 (30 °C) and -0.236 ± 0.12 (37 °C).

Turning to AUUCAGCAAUAUUACGAGGA, the “self-splicing fitness (ln)” value (30 °C) was -2.81 ± 0.32 and the “self-splicing fitness (ln)” value (37 °C) was -1.63 ± 0.16.

As for AUUCAGCAAUAUUACGAUCG, the “self-splicing fitness (ln)” value (30 °C) was -1.87 ± 0.1 and the “self-splicing fitness (ln)” value (37 °C) was -1.5 ± 0.12.

Consider AUUCAGCAAUAUUACGAUGC, for which the “self-splicing fitness (ln)” value is -1.27 ± 0.11 (30 °C) and 0.0653 ± 0.13 (37 °C).

Regarding AUUCAGCAAUAUUACGCAAA, the “self-splicing fitness (ln)” value was -1.04 ± 0.14 (30 °C) and -0.821 ± 0.16 (37 °C).

For the sequence AUUCAGCAAUAUUACGCAAC, the “self-splicing fitness (ln)” value is, setting by setting: (30 °C) -2.05 ± 0.18; (37 °C) -0.188 ± 0.17.

As to AUUCAGCAAUAUUACGCACA, the “self-splicing fitness (ln)” value by setting is: (30 °C) -0.671 ± 0.096; (37 °C) -0.192 ± 0.1.

As for AUUCAGCAAUAUUACGCACC, the “self-splicing fitness (ln)” value (30 °C) is -0.502 ± 0.1 and the “self-splicing fitness (ln)” value (37 °C) was 0.457 ± 0.12.

In the case of AUUCAGCAAUAUUACGCAGG, the “self-splicing fitness (ln)” value (30 °C) is -1.26 ± 0.12 and the “self-splicing fitness (ln)” value (37 °C) was -0.594 ± 0.16.

As to AUUCAGCAAUAUUACGCGAU, the “self-splicing fitness (ln)” value (30 °C) is -3.46 ± 0.18 and the “self-splicing fitness (ln)” value (37 °C) was -3.23 ± 0.26.

On to AUUCAGCAAUAUUACGCUCC, for which the “self-splicing fitness (ln)” value (30 °C) is -0.31 ± 0.073 and the “self-splicing fitness (ln)” value (37 °C) turned out to be 0.274 ± 0.096.

With AUUCAGCAAUAUUACGGAAG, the “self-splicing fitness (ln)” value is, setting by setting: (30 °C) -1.02 ± 0.096; (37 °C) -0.0127 ± 0.11.

AUUCAGCAAUAUUACGGAGU: the “self-splicing fitness (ln)” value (30 °C) was -4.52 ± 0.34 and the “self-splicing fitness (ln)” value (37 °C) was -2.3 ± 0.23.

Regarding AUUCAGCAAUAUUACGGAUU, the “self-splicing fitness (ln)” value (30 °C) was -4.2 ± 0.22 and the “self-splicing fitness (ln)” value (37 °C) was -2.21 ± 0.2.

Take AUUCAGCAAUAUUACGGCAC: the “self-splicing fitness (ln)” value is -0.847 ± 0.074 (30 °C) and -0.407 ± 0.096 (37 °C).

Turning to AUUCAGCAAUAUUACGGCAG, the “self-splicing fitness (ln)” value runs as follows: (30 °C) -1.14 ± 0.11; (37 °C) -0.688 ± 0.14.

As to AUUCAGCAAUAUUACGGGGA, the “self-splicing fitness (ln)” value is, setting by setting: (30 °C) -1.93 ± 0.094; (37 °C) -0.802 ± 0.083.

On to AUUCAGCAAUAUUACGGGGG, for which the “self-splicing fitness (ln)” value runs as follows: (30 °C) -2.77 ± 0.15; (37 °C) -2.14 ± 0.16.

On to AUUCAGCAAUAUUACGGGGU, for which the “self-splicing fitness (ln)” value by setting is: (30 °C) -3.78 ± 0.39; (37 °C) -2.85 ± 0.26.

Turning to AUUCAGCAAUAUUACGGUGG, the “self-splicing fitness (ln)” value is, setting by setting: (30 °C) -3.09 ± 0.15; (37 °C) -1.58 ± 0.14.

For AUUCAGCAAUAUUACGUCGC, the “self-splicing fitness (ln)” value (30 °C) was -2.74 ± 0.099 and the “self-splicing fitness (ln)” value (37 °C) was -1.86 ± 0.11.

AUUCAGCAAUAUUACGUCUU: the “self-splicing fitness (ln)” value (30 °C) was -0.0261 ± 0.083 and the “self-splicing fitness (ln)” value (37 °C) stood at 0.411 ± 0.089.

Consider AUUCAGCAAUAUUACGUGCG, for which the “self-splicing fitness (ln)” value runs as follows: (30 °C) -0.448 ± 0.095; (37 °C) -0.262 ± 0.13.

In the case of AUUCAGCAAUAUUACGUGGU, the “self-splicing fitness (ln)” value runs as follows: (30 °C) -3 ± 0.12; (37 °C) -0.786 ± 0.099.

In the case of AUUCAGCAAUAUUACGUUCG, the “self-splicing fitness (ln)” value (30 °C) is -0.646 ± 0.06 and the “self-splicing fitness (ln)” value (37 °C) was -0.898 ± 0.094.

With AUUGAGCAAUAUUACGACGU, the “self-splicing fitness (ln)” value (30 °C) is -0.46 ± 0.12 and the “self-splicing fitness (ln)” value (37 °C) is -0.115 ± 0.13.

As to AUUGAGCAAUAUUACGACUG, the “self-splicing fitness (ln)” value (37 °C) is -0.882 ± 0.25.

For the sequence AUUGAGCAAUAUUACGAUGC, for the setting “30 °C”, the “self-splicing fitness (ln)” value was -1.58 ± 0.38.

Turning to AUUGAGCAAUAUUACGAUGG, where the note is “30 °C”, the “self-splicing fitness (ln)” value is -2.84 ± 0.25.

Regarding AUUGAGCAAUAUUACGAUUG, the “self-splicing fitness (ln)” value reads like this: (30 °C) -3.62 ± 0.3; (37 °C) -3.11 ± 0.26.

With AUUGAGCAAUAUUACGCGCC, the “self-splicing fitness (ln)” value (30 °C) was -1.62 ± 0.48.

Take AUUGAGCAAUAUUACGCUCA: the “self-splicing fitness (ln)” value (37 °C) is -1.62 ± 0.4.

For AUUGAGCAAUAUUACGCUUG, the “self-splicing fitness (ln)” value by setting is: (30 °C) -2.91 ± 0.18; (37 °C) -0.989 ± 0.18.

For AUUGAGCAAUAUUACGGAAU, the “self-splicing fitness (ln)” value runs as follows: (30 °C) -1.59 ± 0.17; (37 °C) -1.28 ± 0.2.
